Experimental data reported in the supplement of paper PMC7877785.
± gives the uncertainty stated by the source.

Experiment: self-splicing fitness, log relative to wild type (ln ratio); higher = more splicing; Tetrahymena group I intron in knt gene, E. coli kanamycin selection, DiMSum; sequences stand for … in CUCUCU…GGAGGGAAAAGUUAUCAGGCAUGCACCUGGUAGCUAGUCUUUAAACCAAUAGAUUGCAUCGGUUUAAAAGGCAAGACCGUCAAAUUGCGGGAAAGGGGUCAACAGCCGUUCAGUACCAAGUCUCAGGGGAAACUUUGAGAUGGCCUUGCAAAGGGUAUGGUAAUAAGCUGACGGACAUGGUCCUAACCACGCAGCCAAGUCCUAAGUCAACAGAUCUUCUGUUGAUAUGGAUGCAGUUCACAGACUAAAUGUCGGUCGGGGAAGAUGUAUUCUUCUCAUAAGAUAUAGUCGGACCUCUCCUUAAUGGGAGCUAGCGGAUGAAGUGAUGCAACACUGGAGCCGCUGGGAACUAAUUUGUAUGCGAAAGUAUAUUGAUUAGUUUUGGAGUACUCGUGGUCG
Method in brief: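 Library with all eight P1ex-region intron nucleotides randomised, intron inside the knt kanamycin-resistance gene on pET-22b(+), in E. coli BL21(DE3). Cells grew overnight at 37°C or 30°C on LB agar with or without 25 μg/mL kanamycin (plus 100 μg/mL carbenicillin, 50 μM IPTG, 0.2% rhamnose), in six replicate transformations. Pooled colonies were amplicon-sequenced on Illumina HiSeq 2500. DiMSum fitness is the error-weighted combination of wild-type-normalised replicate fold changes, kanamycin versus none.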

Sequence | self-splicing fitness (ln) (30 °C) | self-splicing fitness (ln) (37 °C)
CAAGAGCAAUAUUACGGUCU | -2.35 ± 0.16 | -1.97 ± 0.22
CAAGAGCAAUAUUACGUAAC |  | -2.94 ± 0.43
CAAGAGCAAUAUUACGUAUA | -4.95 ± 0.3 | -1.92 ± 0.15
CAAGAGCAAUAUUACGUCAG | -3.25 ± 0.16 | -0.429 ± 0.11
CAAGAGCAAUAUUACGUUCA | -2.46 ± 0.17 | -2.09 ± 0.19
CAAGAGCAAUAUUACGUUGC | -3.28 ± 0.2 | -2.38 ± 0.23
CAAGAGCAAUAUUACGUUGU | -5.35 ± 0.45 | -2.26 ± 0.22
CAAGAGCAAUAUUACGUUUG | -2.75 ± 0.21 | -2.37 ± 0.24
CAAUAGCAAUAUUACGAAGG | -1.86 ± 0.095 | -0.211 ± 0.13
CAAUAGCAAUAUUACGAAUC | -2.66 ± 0.38 | -0.0469 ± 0.27
CAAUAGCAAUAUUACGACCU | -3.2 ± 0.24 | -0.203 ± 0.2
CAAUAGCAAUAUUACGACGC | -2.73 ± 0.19 | -0.616 ± 0.17
CAAUAGCAAUAUUACGAGAC | -4.17 ± 0.36 | -2.1 ± 0.27
CAAUAGCAAUAUUACGCACU | -2.14 ± 0.12 | -1.82 ± 0.17
CAAUAGCAAUAUUACGCUAA | -3.58 ± 0.43 | -2.05 ± 0.2
CAAUAGCAAUAUUACGGCUG | -0.286 ± 0.084 | -0.379 ± 0.098
CAAUAGCAAUAUUACGGGAA | -3.21 ± 0.2 | -1.94 ± 0.15
CAAUAGCAAUAUUACGGUAC | -3.25 ± 0.19 | -2.08 ± 0.18
CAAUAGCAAUAUUACGGUGG | -0.89 ± 0.081 | -0.133 ± 0.1
CAAUAGCAAUAUUACGUAGC |  | -2.05 ± 0.3
CAAUAGCAAUAUUACGUAUA | -3.6 ± 0.22 | -2.58 ± 0.19
CAAUAGCAAUAUUACGUCGA | -2.82 ± 0.21 | -2.96 ± 0.28
CAAUAGCAAUAUUACGUCUU | -3.63 ± 0.14 | -2.09 ± 0.13
CAAUAGCAAUAUUACGUUAU | -4.87 ± 0.34 | -1.57 ± 0.18
CAAUAGCAAUAUUACGUUCU | -4.4 ± 0.43 | 

Sequence | self-splicing fitness (ln) (30 °C) | self-splicing fitness (ln) (37 °C)
CAAUAGCAAUAUUACGUUUA | -3.6 ± 0.19 | -2.13 ± 0.14
CACAAGCAAUAUUACGACGG | -0.279 ± 0.071 | 0.557 ± 0.083
CACAAGCAAUAUUACGAUCU | -2.56 ± 0.09 | -2.85 ± 0.13
CACAAGCAAUAUUACGAUUC | -3.55 ± 0.16 | -0.651 ± 0.11
CACAAGCAAUAUUACGCACA | -1.08 ± 0.087 | -0.518 ± 0.098
CACAAGCAAUAUUACGCAGC | -3.48 ± 0.29 | 
CACAAGCAAUAUUACGCAUG | -3.79 ± 0.18 | -2.52 ± 0.13
CACAAGCAAUAUUACGCCGU | -2.15 ± 0.23 | -2.36 ± 0.26
CACAAGCAAUAUUACGCCUU | -3.72 ± 0.18 | -1.34 ± 0.14
CACAAGCAAUAUUACGCGAU | -3.57 ± 0.15 | -3.18 ± 0.19
CACAAGCAAUAUUACGCGUG | -2.76 ± 0.16 | -2.24 ± 0.22
CACAAGCAAUAUUACGGCAG | -0.587 ± 0.051 | -0.0731 ± 0.064
CACAAGCAAUAUUACGGCGC | -3.59 ± 0.17 | -1.07 ± 0.12
CACAAGCAAUAUUACGGGGC | -3.54 ± 0.17 | -2.54 ± 0.18
CACAAGCAAUAUUACGGUGG | -1.99 ± 0.05 | -1.06 ± 0.062
CACAAGCAAUAUUACGUCCC | -2.13 ± 0.33 | -1.07 ± 0.46
CACAAGCAAUAUUACGUCCU | -1.84 ± 0.12 | -1.05 ± 0.15
CACAAGCAAUAUUACGUGUC | -3.86 ± 0.15 | -1.63 ± 0.12
CACAAGCAAUAUUACGUGUU | -3.95 ± 0.12 | -3.28 ± 0.13
CACAAGCAAUAUUACGUUGG | -2.5 ± 0.091 | -1.76 ± 0.099
CACCAGCAAUAUUACGAAUU | -3.18 ± 0.15 | -2.92 ± 0.17
CACCAGCAAUAUUACGACUC | -3.42 ± 0.21 | -1.62 ± 0.18
CACCAGCAAUAUUACGAGAG | -0.95 ± 0.054 | -0.673 ± 0.069
CACCAGCAAUAUUACGAUGG | -1.58 ± 0.06 | -0.874 ± 0.079
CACCAGCAAUAUUACGCAUC | -2.88 ± 0.13 | -3.35 ± 0.23

Sequence | self-splicing fitness (ln) (30 °C) | self-splicing fitness (ln) (37 °C)
CACCAGCAAUAUUACGCGAA | -4.18 ± 0.21 | -2.04 ± 0.12
CACCAGCAAUAUUACGCGAG | -0.893 ± 0.057 | -0.594 ± 0.063
CACCAGCAAUAUUACGCGCA | -2.03 ± 0.084 | -1.51 ± 0.085
CACCAGCAAUAUUACGCUAG | -1.49 ± 0.068 | -0.153 ± 0.079
CACCAGCAAUAUUACGGAAC | -4.01 ± 0.17 | -2.06 ± 0.14
CACCAGCAAUAUUACGGGCU | -4.86 ± 0.2 | -2.8 ± 0.16
CACCAGCAAUAUUACGGUGA | -2.61 ± 0.095 | -3.26 ± 0.15
CACCAGCAAUAUUACGGUGC | -3.89 ± 0.21 | -1.81 ± 0.15
CACCAGCAAUAUUACGUAGG | -0.739 ± 0.05 | -0.0785 ± 0.074
CACCAGCAAUAUUACGUCUU | -3.59 ± 0.12 | -2.64 ± 0.15
CACCAGCAAUAUUACGUGGC | -3.65 ± 0.17 | -2.98 ± 0.21
CACCAGCAAUAUUACGUGGG | -3.41 ± 0.095 | -3.03 ± 0.12
CACGAGCAAUAUUACGAAAA | -2.14 ± 0.17 | -2.66 ± 0.25
CACGAGCAAUAUUACGAAAU | -2.18 ± 0.19 | -2.81 ± 0.29
CACGAGCAAUAUUACGAAUG | -2.66 ± 0.11 | -2.17 ± 0.16
CACGAGCAAUAUUACGACAG | -1.71 ± 0.078 | -0.496 ± 0.095
CACGAGCAAUAUUACGAGAG | -3.14 ± 0.15 | -2.18 ± 0.18
CACGAGCAAUAUUACGCAAU | -4.23 ± 0.19 | -2.99 ± 0.16
CACGAGCAAUAUUACGCCAU | -2.82 ± 0.27 | -2.55 ± 0.33
CACGAGCAAUAUUACGCUAG |  | -2.4 ± 0.28
CACGAGCAAUAUUACGCUCA | -2.85 ± 0.45 | -2.42 ± 0.27
CACGAGCAAUAUUACGGAAG | -3.54 ± 0.21 | -2.32 ± 0.2
CACGAGCAAUAUUACGGAGC | -2.87 ± 0.44 | -0.87 ± 0.19
CACGAGCAAUAUUACGGAGG | -4.5 ± 0.36 | -2.75 ± 0.28
CACGAGCAAUAUUACGGAGU | -4.82 ± 0.32 | -3.69 ± 0.24

Sequence | self-splicing fitness (ln) (30 °C) | self-splicing fitness (ln) (37 °C)
CACGAGCAAUAUUACGGAUG | -3.35 ± 0.16 | -2.47 ± 0.16
CACGAGCAAUAUUACGGCAU | -3.23 ± 0.2 | -3.52 ± 0.33
CACGAGCAAUAUUACGGUUU | -3.79 ± 0.33 | -2.93 ± 0.36
CACGAGCAAUAUUACGUACU | -2.77 ± 0.16 | -2.54 ± 0.27
CACGAGCAAUAUUACGUGCC |  | -3.4 ± 0.28
CACGAGCAAUAUUACGUUAA | -3.25 ± 0.22 | -2.86 ± 0.22
CACUAGCAAUAUUACGAAAU |  | -1.38 ± 0.4
CACUAGCAAUAUUACGAAUU | -2.88 ± 0.19 | -2.77 ± 0.23
CACUAGCAAUAUUACGACGA | -2.06 ± 0.16 | -1.16 ± 0.17
CACUAGCAAUAUUACGACGG | -0.0504 ± 0.083 | -0.117 ± 0.082
CACUAGCAAUAUUACGACUG | -0.3 ± 0.053 | -0.0818 ± 0.071
CACUAGCAAUAUUACGACUU | -2.29 ± 0.15 | -0.517 ± 0.12
CACUAGCAAUAUUACGAGUA | -1.34 ± 0.096 | -0.6 ± 0.076
CACUAGCAAUAUUACGAUAA | -3.35 ± 0.2 | -1.59 ± 0.15
CACUAGCAAUAUUACGCGGA | -3.19 ± 0.25 | -1.85 ± 0.18
CACUAGCAAUAUUACGGAAA | -1.99 ± 0.42 | -1.42 ± 0.5
CACUAGCAAUAUUACGGACU | -2.87 ± 0.18 | -1.13 ± 0.14
CACUAGCAAUAUUACGGAUG | -2.42 ± 0.083 | -1.39 ± 0.079
CACUAGCAAUAUUACGGUCA | -0.522 ± 0.092 | -0.198 ± 0.12
CACUAGCAAUAUUACGUAGC | -3.47 ± 0.19 | -2.94 ± 0.23
CACUAGCAAUAUUACGUCAU | -5.15 ± 0.41 | -2.79 ± 0.23
CACUAGCAAUAUUACGUCCA | -2.87 ± 0.22 | -1.31 ± 0.16
